This note sets out measurements from US20040191240A1, “Composition and method for nerve regeneration” (priority 2003, published 2004).

Test [1] addresses T1, RhoA complexed with Rho GDI (Bos taurus, UniProt P19803).
T1 construct: GST (N, cleaved yes); made in house; host or cells: yeast (RhoA, from membranes); E. coli (Rho GDI, pGEX)
T1 sequence (P19803 1-204): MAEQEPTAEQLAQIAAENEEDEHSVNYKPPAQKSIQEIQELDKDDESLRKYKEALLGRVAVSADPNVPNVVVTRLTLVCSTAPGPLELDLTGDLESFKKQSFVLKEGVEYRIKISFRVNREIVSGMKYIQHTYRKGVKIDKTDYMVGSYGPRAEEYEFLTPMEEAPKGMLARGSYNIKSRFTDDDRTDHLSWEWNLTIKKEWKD
Put plainly: In vitro nucleotide exchange assay. The test is classed as biochemical. The settings on record: high Mg2+; 50 nM complex, 90 nM GST-Dbl. The protocol:
Lipid-modified RhoA was purified from yeast membranes as described (Forget, M. A., Desrosiers, R. R., Gingras, D. & Beliveau, R., Biochem. J. 361, 243-54(2002)). [^3H]GDP- or GDP-RhoA complexed with Rho GDI was obtained by first incubating GDP-RhoA with or without [^3H]GDP, followed by incubation with Rho GDI for 30 min, as described previously (Takahashi, K. et al., J. Biol. Chem. 272, 23371-23375 (1997)). The sample, subjected to gel filtration, was equilibrated with 20 mM Tris-HCl (pH 7.5) containing 5 mM MgCl2, 1 mM dithiothreitol and 0.1% CHAPS. The GDP dissociation and GTP binding assays were carried out by the filter binding method as described previously (Hart, M. J., Eva, A., Evans, T., Aaronson, S. A. & Cerione, R. A., Nature 354, 311-314 (1991)). In the [^3H]GDP dissociation assay, 50 nM of the complex was incubated for 20 min with various concentrations of GST-fused proteins in a reaction mixture (50 μl) containing 30 mM Tris-HCl (pH 7.5), 5 mM or 0.5 μM MgCl2, 1 (for low Mg) or 10 (for high Mg) mM EDTA, 0.1 mM GTP, 1 mM dithiothreitol, 0.12% CHAPS and 0.2mg/ml bovine serum albumin. In the [^35S] GTPγS binding assay, the complex was incubated as described above except that 1 μM [^35S] GTPγS was used instead of 0.1 mM GTP. At the indicated time, an aliquot of the reaction sample was removed, and passed through nitrocellulose filters (IPVH 000, Millipore). […]

The test system of a further test is male Wistar rats. In words: Spinal cord injury (dorsal half dissected, ninth thoracic vertebra), agent pumped to the injured site. The test is classed as in vivo, rat. The settings on record: species not stated. The protocol:
200 g male Wistar rats were used. After the ninth thoracic vertebrae laminectomy was performed, the dorsal half of the spinal cord was dissected. A continuous osmotic pump was used to continuously administer either TAT(PTD domain)-fused Pep5 (TAT-[…]) (SEQ ID NO. 2) or TAT(PTD domain)-fused control peptide (TAT-[…]) (SEQ ID NO. 15) to the injured site for 6 weeks ([…]). In this case, the tip of a tube connected to the pump was left in the medullary space. After spinal cord injury, the functional recovery was assessed using the BBB score. The animals were observed on day 7, 14, 21, 28, 35, and 42 after injury. These experiments were carried out using techniques described in Fournier A. E., Takizawa, B. T., Strittmatter, S. M., J. Neurosci. 2003, 23, 1416-1423.
200 g male Wistar rats were used. After the ninth thoracic vertebrae laminectomy was performed, the dorsal half of the spinal cord was dissected. A continuous osmotic pump was used to continuously administer either TAT-fused Pep5 or TAT (PTD domain)-fused control peptide to the injured site.

B1: p75 ICD: GST-fused intracellular domain (ICD) of p75 (protein)
chain: KRWNSCKQNKQGANSRPVNQTPPPEGEKLHSDSGISVDSQSLHDQQTHTQTASGQALKGDGNLYSSLPLTKREEVEKLLNGDTWRHLAGELGYQPEHIDSFTHEACPVRALLASWGAQDSATLDALLAALRRIQRADIVESLCSESTATSPV
modifications: left off: a dimerising Fc or GST
B1: the “Dbl stimulated dissociation of GDP from GDP-RhoA complexed with Rho GDI” value in test [1] is listed as “showed the inhibitory effect to the same extent as p75 HD”.

B2: p75 in which alanine was replaced with valine at amino acid 423: p75 positions 273-427 of SEQ ID NO. 4 with alanine replaced with valine at amino acid 423 (protein)
chain: KRWNSCKQNKQGANSRPVNQTPPPEGEKLHSDSGISVDSQSLHDQQPHTQTASGQALKGDGGLYSSLPPAKREEVEKLLNGSAGDTWRHLAGELGYQPEHIDSFTHEACPVRALLASWATQDSATLDALLAALRRIQRADLVESLCSESTVTSPV
modifications: Homo sapien
In the case of B2, the “nerve regeneration, similar experiments with modified amino acids (Example 2-8)” value in the test with male Wistar rats is recorded as “nerve regeneration was similarly observed”.
